Assay: yeast display, Sf9 membrane polyspecificity reagent, FACS + sequencing; frameworks hold sequencing errors
Outline: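 In a synthetic yeast display library (Saccharomyces cerevisiae BJ5465), nanobody expression was induced with galactose for 36–48 hours. FACS gates were set low and high (top ~1%) using anti-HA fluorescence for expression and streptavidin fluorescence for binding of the Sf9 membrane reagent. Each polyreactivity label is drawn from the gate of origin.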

Q: For “QVQLVESGGGLVQAGGSLRLSCAASGRTFYLNAMGWYRQAPGKVRELVAAIRFSGGSTYYADSVKGRFTISRDNAKNTVYLQMNSLKPEDTAVYYCNAGPYHSLYPTVSEYGYWGQGTQVTVSS”, which “polyreactivity (PSR sort gate)” value is on record?
A: The value was “low polyreactivity”.

Q: For “QVQLVESGGGLVQAGGSLRLSCAASGSILFLNAMGWYSQAPGKERELVASITDSGGGTYYADSVKGRFTISRDNAKNTVYLQMNSLKPEDTAVYYCNARSRRPDDYWGQGTQVTVSS”, which “polyreactivity (PSR sort gate)” value is on record?
A: The value was “low polyreactivity”.

Q: With “QVQLVESGGGLVQEGGSLRLSCASSGSTFPRYVMGWYRKQTGTESELVAAISSSSGRTFYADSVKGRFTISRDNAKNTVYLQMNSLKPEDTAVYYCAARTSFNVHYWGQGTQVTVSS” as the sequence, how does the “polyreactivity (PSR sort gate)” value read?
A: The value was “high polyreactivity”.

Q: With “QVQLVESGGGLVQAGGSLRLSCAASGYIFLPYAMGWYRQAPGKERELVAAITSVGRTYYADSVKGRFTISRDNAKNTVYLQMNSLKPEDTAVYYCAAPRGHGKYYSWGQGTQVTVSS” as the sequence, how does the “polyreactivity (PSR sort gate)” value read?
A: Its value is “high polyreactivity”.

Q: Which “polyreactivity (PSR sort gate)” value does the source give for “QVQLVESGGGLVQAGCSLRLSCAASGSTFFYYAMGWYRQSPGKERELVARISGGGSTNYADSVKGRFTISRDNAKNTVYLQMNSLKPEDTAVYYCAADRYDYYRYSYGRYGYWGQGTQVTVSS” here?
A: Its value is “high polyreactivity”.

Q: For “QVQLVESGGGLVQAGGSLRLSCAASGTTIETYASGWYRQAPGKERELVATITSGGSTYYAYSVKGRFTISRDTAKITVYLQMNSLKPEDTSVYYCAAGRYGGKHVWYYYWGQGTQVTVSS”, which “polyreactivity (PSR sort gate)” value is on record?
A: Its value is “high polyreactivity”.

Q: Which “polyreactivity (PSR sort gate)” value does the source give for “QVQLVESGGGLVQAGGSLRLSCAASGSTFDYYTMGWYRPAPGKERELVAAISSSGGSTYYADSVKGRFTISRDYAKNTVYLQMNSLKPEDTAVYYCAADPSPYGDEYDYWGQGTQVTVSS” here?
A: Its value is “low polyreactivity”.

Q: With “QVQLVESGGGLVQAGGSLRLSCAASGITFVWNAMGWYIKEPGKERELVATISRGGVRTYYADSVKGRFTISRDNAKNTVYLQMNSLKPEDTAVYYCNAYFEYYDYWGQGTQVSVSS” as the sequence, how does the “polyreactivity (PSR sort gate)” value read?
A: Its value is “low polyreactivity”.

Q: Which “polyreactivity (PSR sort gate)” value does the source give for “QVQLVESGGGLVQAGGSLRLSCAASGLTFQPNVMGWYRQATGKERELVAAISVRTTRTYYADSVKGRFTISRDNAKNTVYLQMNSLKPEDTAVYYCNTDISRNYYWALYGYWGQGTQVTVSS” here?
A: Its value is “low polyreactivity”.

Q: Which “polyreactivity (PSR sort gate)” value does the source give for “QVQLVESGGGLVQAGGSLRLSCAASGSIFHGYAMGWYRQAHGKETELVAVITRGGNTYYADSVKGRFTISRDNAKNTVYLQMNSLKPEDTAVYYCNKAVDRGRRAYGYWGQGTQVTVSS” here?
A: The value was “high polyreactivity”.

Q: With “QVQLVESGGGLVQAGGSLRLSCSATGNTLDVNARGWYRQAPGKERELVAAITSGGSTNYADSVKVRFTISRDNAKNTVYLQMNSLKPEDTAVYYCAATAALGRPEYYWGQGSQVTVSS” as the sequence, how does the “polyreactivity (PSR sort gate)” value read?
A: Its value is “low polyreactivity”.

Q: For “QVQLVESGGGLVQAGGSLRLSCAASGRIFVRYAMGWYRQAPGKERELVAAINWRGSSTYYADSVKGRFTISRDNAKNTVYLQMTSLKPEDTAVYYCNTAQRYRVYRYDYWGQGTQVTVSS”, which “polyreactivity (PSR sort gate)” value is on record?
A: The value was “high polyreactivity”.

Q: Which “polyreactivity (PSR sort gate)” value does the source give for “QVQLVESGGGLVQAGGSHSLSCAASGSTFKHYAMGWYRQAPGKERELVAAISWGGVNTDYADSVKGRFTISRDNAKNTVYLQMNSLNPEDTAVYYCAAGRWSVGTYDYWGQGTQVTVSS” here?
A: The value was “low polyreactivity”.

Q: For “QVQLVESGGGLVQAGGSLRLSCAASGRTLSRYTMGWYRQAPGKERELVAAISTSGSTYYADSVKGRFTISRDNAKNTVYLQMNSLKPEDTAVYYCNAVRRYLQYATGYDYWGQGTQVTVSS”, which “polyreactivity (PSR sort gate)” value is on record?
A: The value was “high polyreactivity”.

Q: With “QVQLVESWGGLVQAGGSLRLSCAASGFTLYYYAMGWYRPAPGKERELVARISLRGGRTYYADSVKGRFTISRDNAKTTVYLQMNSLKPEESAVYYCAAVGRYPITWESGESDYWGQGTQVTVSS” as the sequence, how does the “polyreactivity (PSR sort gate)” value read?
A: The value was “high polyreactivity”.

Q: For “QVQLVESGGGLVQAGGSLRLSCAASGSIFGAYVMGWYRQAPGKERELVAAITRRGGSTYYADSVKGRFTISRDNAKNTVYLQMNSLKPEDTAVYYCAARRGAGDGYWGQGTQVTVSS”, which “polyreactivity (PSR sort gate)” value is on record?
A: The value was “high polyreactivity”.

Q: Which “polyreactivity (PSR sort gate)” value does the source give for “QVQLVESGGGLVQAGGSLRLSCAASGSTFNIYVMGWYRQAPGKERELVAAITTSGRTYYADSVKGRFTISRDNAKNTVYLQMNSLKPEDTAVYYCAAVPVRYRYSYGYYYWGQGTQVTVSS” here?
A: Its value is “high polyreactivity”.

Q: With “QVQLVESGGGVVQAGGSLRLSCAASGRIFDIYDMGWYRQAPGKERELVAAITSGRNTYYADSVKGRFTISRDNAKNTVYLQMNSLKPEDTAVSYCAAYSYPPLLWSYDYWGQGTQVTVSS” as the sequence, how does the “polyreactivity (PSR sort gate)” value read?
A: The value was “low polyreactivity”.

Q: Which “polyreactivity (PSR sort gate)” value does the source give for “QVQLVESGGGLVQAGGSLRLSCAASGRTFLSNAMGWYRQEPGKERELVAAINSGDSTYYAYSVKGRFTISRYNAKNTVYLQMNSLKPEDTAVYYCAAAFYYRRMYYWGKGTQVTVSS” here?
A: Its value is “high polyreactivity”.

Q: Which “polyreactivity (PSR sort gate)” value does the source give for “QVQLVESGGGLVQAGGSLRLSCAASGILLFNAMGWYRQAPGKERELVAPINSGGSTNYADSVKGRFTISRDNAKNTVYLQMKSLKPDDTAVYYCGKDTPFTLRVWAEGGMDYWGEGTQVTVSS” here?
A: The value was “low polyreactivity”.

Q: Which “polyreactivity (PSR sort gate)” value does the source give for “QVQLVESGGGLVPAGGSRRLSCAASGSIFTSYAMGWYRQAPGKERELVAAISSSGGSTYYADSVSGRFTISRDNAKQTVYFQMNSLKPEDTAVYYCAARYKGVYAPHYYWGQGTQVTVSS” here?
A: Its value is “high polyreactivity”.

Q: With “QVQLVESGGGLVQAGGSLRLSCAASGFIFRPYAMGWYRQAPGKERELVAAISYGDGITYYADSVKGRFTISRDNAKNTVYLQMNSLKPEDTAVYDCAVDSHPEEYDYWGQGTQVTVSS” as the sequence, how does the “polyreactivity (PSR sort gate)” value read?
A: The value was “low polyreactivity”.

Q: Which “polyreactivity (PSR sort gate)” value does the source give for “QVQLVESGGGLVQAGGSLRLSCAASGSISPQNVMGWYTQAPGKERELVAAITGGGSTNYADSVKGRFTISRDNAKNTVFLLMNSLKPEDTAVYYCNADYFQDRLDYWGQGTQVTVSS” here?
A: Its value is “low polyreactivity”.

Q: With “QVQLVESGGGLVQAGGSLRLSCAASGSIFGGNAMGWYRQAPGKERELVAAISGSGGSTYYADSVKGRFTISRDNAKNTVYLQMNSLKPEDTAVYYCAAGIYRGRNYYYWGQGTQVTVSS” as the sequence, how does the “polyreactivity (PSR sort gate)” value read?
A: The value was “high polyreactivity”.

Q: For “QVQLEESGGGLVQAGGSLRLSCAASGRIFAGYAMGWYRQEPGKERELVAAINGSGADTYYADSVKGRFTISRDNAKNTVYLQMNSLKPEDTAVYYCAASPGSQYTGYDYWGQGTQVTVSS”, which “polyreactivity (PSR sort gate)” value is on record?
A: The value was “low polyreactivity”.

Q: With “QVQLVDSGGGLVQAGGSLSLSCAASGSTFTDYDMGWYRQAPGKERELVAAITSGGSTNYADSVKGRFTISRDNAKKTVYLQMNSLNPEATAVYYCAAADADRKYDYWGQGTQVTVSS” as the sequence, how does the “polyreactivity (PSR sort gate)” value read?
A: Its value is “low polyreactivity”.

Q: Which “polyreactivity (PSR sort gate)” value does the source give for “QVQLVESVGGLVQAGGSLRLSCPASGSIFKYNAMGWYRQSPGKERELVAAISSGGSTNYADSVKGRFTISRDNAKNTVYLQMNSLKPEDTAVYYCAKDRRRWYYTRDYWGQGTQVTVSS” here?
A: The value was “low polyreactivity”.

Q: For “QVQLVESGGGLVQAGGSLRLSCAASGRIYSNYAIGWYRQAPGKERELVAAITSGGRTNYADSVKGRFTISRDNAKNTVYLQMNSLKRDDTAVYYCDAETTPYQPDGFDEYYYWGQGTQVTVSS”, which “polyreactivity (PSR sort gate)” value is on record?
A: The value was “high polyreactivity”.

Q: Which “polyreactivity (PSR sort gate)” value does the source give for “QVQLVESGGGLVQAGCSLRLSCAASGSTFRYYAMGWYRQAPGKERELVAAINRSGGSTYYADSVKGRFTISRDNAKNTVYLQMYSLKPEDTAVYYCAAPWARHYSNPDDYWGQGTQVTVSS” here?
A: The value was “high polyreactivity”.

Q: Which “polyreactivity (PSR sort gate)” value does the source give for “QVQLVESGGGLVQAGGSLRLSCASSGLIFQYYVKGWYRQAPGKERELVAAISARGGGTYYADSVKGRFTISRDNAKNTVYLQMISLKPEDTAVYYCAADPVYAGPGYDYWGQGTQVTVSS” here?
A: Its value is “high polyreactivity”.

Q: For “QVQLVESGGGLVQAGGSLRLSCAASGFTFRYNTMGGYRQAPGKERELVAAISSSGSSTYYADSVKGRFTISRDNAKNTVYLQMNSLKPEDTAVYYCNAVHRRTRYGYWGQGTQVTVSS”, which “polyreactivity (PSR sort gate)” value is on record?
A: Its value is “high polyreactivity”.

Q: Which “polyreactivity (PSR sort gate)” value does the source give for “QVQLVESGGGLVQAGGSLRLSCAASGSTFGTYAMGWYRQEPGKERELVAAIRWSGVSTYYADSVKGRFTISRDNAKNTVYLQMNSLKPEDTAVYYCAVALWVRGTYIYEYWGQGTQVTVSS” here?
A: The value was “high polyreactivity”.
